# Measured values from patent US20250127857A1, “A COMPOSITION COMPRISING IL-36 AND/OR IL-18 FOR USE IN TREATING OCULAR DISORDERS” (THE PROVOST, FELLOWS, FOUNDATION SCHOLARS, & THE OTHER …, priority 2021, published 2025).
# Tests used:
# Assay type in all cases: cell-based, human
# [1] = system: ZO-1, tricellulin and occludin; assay: Western blot for tight junction proteins; details: HRMEC, 24 h, indicated concentrations
# Method: (§1) FIG. 6 illustrates IL-36 cytokines alter the protein levels of adherens and tight junction components in endothelial cells, wherein (A, B) are Western blot for VE-cadherin protein expression in response to (A) IL-36α, (B) IL-36β treatment for 24 hours at indicated doses in HRMEC, representative N=4 experiments; (C, D) are Western blot for the expression of tight junction proteins ZO-1, tricellulin and occludin in response to (C) IL-36α and (D) IL-36β treatment at indicated concentrations for 24 hours in HRMEC, representative of N=3 experiments; (E) is rate of flux of 70 kDa FITC dextran through HRMEC transwell monolayer with 6 hr pretreatment of 100 ng/ml IL-36α and/or 10 μM cycloheximide (CHX), with treatment applied to apical and basal chambers, representative of N=3 experiments; (F) is permeability apparent for HRMEC treated with IL-36α and/or 10 μM CHX, calculated as stated previously; (G) is rate of flux of 70 kDa FITC dextran through HRMEC transwell monolayer with 6 hr pretreatment of 100 ng/ml IL-36β and/or 10 μM CHX, with treatment applied to apical and basal chambers, representative of N=3 experiments; (H) is permeability apparent for HRMEC treated with IL-36β and/or CHX, calculated as stated previously, wherein T-tests were performed as statistical analysis;
# (§2) Protein was extracted from cells using RIPA buffer containing protease inhibitors (Sigma). […]
# [2] = system: HRMEC; assay: Tube formation assay (Matrigel); details: HRMEC on matrigel, 100 ng/ml, 4 hours, vs unstimulated control
# Method: Cells were seeded 2 days prior to the experiment in a T75 in complete growth media and allowed to become ˜80% confluent. They were placed in low serum media overnight prior to use in the experiment. 96 well plates were coated with 60 μl of Matrigel Basement Membrane Matrix (Corning) and placed in a 370C incubator for 30 minutes to set as per manufacturer's instructions. HRMEC were then seeded onto the plates at a density of 8×10^4 cells/ml and treated as indicated with cytokine in triplicate. The plates were placed in an Incucyte and phase contrast images of the wells were taken at 10× for 30 minute intervals. The angiogenesis analyser plug-in for ImageJ was used to analyse the images.
# [3] = system: HRMEC transwell monolayer; assay: Trans-endothelial electrical resistance (TEER) measurement; details: 100 ng/ml, 6 hr, vs untreated control
# [4] = system: VEGFR2; assay: qPCR of VEGFR2 expression in HRMEC treated with IL-36 cytokines; details: treatment over timepoints
# Source text: Primers used were sourced from Sigma.
# [5] = system: HRMEC; assay: Proliferation assays (nuclei cell count, MTS/PMS); details: 24 hours
# Method: HRMEC were seeded on coverslips in 6 well plates at a density of 5×10^4 cells/ml and allowed to grow overnight in growth media. They were then washed in PBS and placed in reduced serum media and incubated with treatment for 24 hour. The coverslip was then washed in PBS, fixed in ice cold methanol and stained with Hoechst (1:10000). The coverslips were then affixed to slides and imaged via fluorescence. N=10 images per slip were taken and averaged to give a cell count per coverslip. For the MTS/PMS assay (Promega) cells were seeded at a density of 5×10^4 cells/ml in a 96 well plate. They were allowed to grow overnight in complete growth media before being washed and placed in low-serum media with the treatment indicated for 24 hours before the MTS/PMS assay was carried out as per manufacturer's protocol.
# [6] = system: HRMEC; assay: HRMEC scratch wound healing / migration with IL-36 cytokines; details: treatment applied at time of scratch, 100 ng/ml
# Method: FIG. 4 illustrates IL-36 cytokines promote endothelial cell migration, wherein (A, B) are representational images of the HRMEC ‘scratch’ healing with (A) IL-36α (B) IL-36β treatment compared to control at 10× magnification, wherein purple dotted lines equate to the size of the wound as imaged using Image J; (C) is rate of wound healing in HRMEC treated with IL-36α expressed as % wound closure, representational of N=4 experiments, wherein two-way ANOVA was performed as statistical test; (D) is a comparison of the level of wound healing between untreated (unt.) and 100 ng/ml IL-36α at 4 and 24 hr post scratch, consolidated N=4 experiments, wherein two-way ANOVA with multiple comparison was performed as statistical test; (E) is rate of wound healing in HRMEC treated with IL-36β expressed as % wound closure, representational of N=4 experiments, wherein two-way ANOVA with multiple comparison performed as statistical test; (F) is a comparison of the level of wound healing between no treatment and 100 ng/ml IL-36β at 4 and 24 hr post scratch, consolidated N=4 experiments, wherein two-way ANOVA with multiple comparison was performed as statistical test;
# Cells were seeded on to a 12-well plate and grown until they reached confluency. […] The area within the scratch was quantified using ImageJ software, and each timepoint was normalised to its baseline and expressed as % closure.
# [7] = system: HRMEC transwell monolayer; assay: Inhibition of translation (cycloheximide) with 70 kDa FITC dextran flux; details: 100 ng/ml cytokine plus 10 μM cycloheximide (CHX), 6 hr
# Method: HRMEC were grown in transwells as above. Once polarised, HRMEC were treated with 10 μM of the translation inhibitor cycloheximide (Sigma) and/or IL-36 cytokine. 70 kDa FITC dextran (Sigma) diluted to 1 mg/ml in low serum media was placed in apical chamber and performing a FITC flux assay as described above.
# [8] = system: HRMEC transwell monolayer; assay: Permeability assay (4 kDa FITC dextran flux, Papp); details: 100 ng/ml, 6 or 24 hour exposure
# Method: HRMEC were grown on transwells (Corning) for 5-7 days to polarize. The cells were placed in low serum media and treated with IL-36 cytokines for 6 or 24 hours, before 4 kDa FITC dextran (Sigma) diluted to 1 mg/ml in low serum media was placed in the apical chamber. Sampling aliquots were periodically removed from the basal chamber and placed in a 96 well plate. The basolateral chamber was then replenished with fresh media. This was repeated at 20-minute intervals for 2 hours. The fluorescence of FITC dextran was measured using a fluorescent plate-reader (BioTek) at an excitation wavelength of 485 nm and an emission wavelength of 520 nm. Relative fluorescence units (RFU) were converted to ng/ml using a FITC dextran standard curve and corrected for background fluorescence and serial dilutions over the course of the experiment. The apparent permeability coefficient (Papp) was calculated as follows: […]
# where dQ/dT is the apparent rate of FITC dextran appearance in the basolateral chamber, A (cm^2) is the surface area of the insert, C0 (mg/ml) is the initial FITC-dextran concentration in the apical chamber. dQ/dT is the slope (y=mx+c) calculated by plotting the cumulative amount (Q) against time(s).
# [9] = system: VE-cadherin; assay: Western blot for VE-cadherin protein expression; details: HRMEC, 24 h
# Method: as §1, §2
molecule,measurement,setting,value
"IL-36α: recombinant human (rh) IL-36α (Peprotech) (protein, UniProt Q9UHA7 6-158, looked up) Interleukin-36 alpha: KIDTPQQGSIQDINHRVWVLQDQTLIAVPRKDRMSPVTIALISCRHVETLEKDRGNPIYLGLNGLNLCLMCAKVGDQPTLQLKEKDIMDLYNQPEPVKSFLFYHSQSGRNSTFESVAFPGWFIAVSSEGGCPLILTQELGKANTTDFGLTMLF","expression of ZO-1, tricellulin and occludin protein",[1],dose dependent increase in expression
same,length of tubes,[2],potential ability to increase the length of the tubes
same,TEER,[3],significantly increased TEER
same,VEGFR2 expression,[4],reduce VEGFR2 expression
same,number of cells (stained nuclei count),[5]; 100 ng/ml,increase in the number of cells
same,proliferation (MTS/PMS assay),[5]; 50 or 100 ng/ml,significant increase in proliferation
same,proliferation compared with VEGF (MTS/PMS assay),[5]; VEGF 50 ng/ml positive control,neither cytokine was as effective as VEGF alone
same,rate of wound closure and cell migration,[6],increased the rate of wound closure and cell migration significantly
same,IL-36-dependent barrier enhancement under inhibition of protein translation,[7],absolute loss
same,rate of FITC-dextran migrating across the HRMEC monolayer,[8],notably decreased
same,VE-cadherin protein expression,[9],Increased expression of VE-cadherin
